From patent US20220143204A1
Substitutions are numbered along the chain they refer to.

B1: 13F11-13E8 conjugated to Alexa Fluor 647 (VHH, not shown: small tags and cut ends)
chain: EVQLVESGGRLVQPGDSLRLSCAASGRTFSDNAMGWFRQAPGKERRFVAGISWAGGSTYYSDSVKGRFTISRDNAKNTVYLQMNSLKPEDTAVYYCAAGLRAWVQRMPKDYNYWGQGTQVTVSSGGGGSGGGGSGGGGSEVQLVESGGGLVQAGGSLRLSCAASRSISPMGWYRQAPGKQRELVAIMPSSGPPIYADSVQGRFTISRDNAKNTVYLQMNSLKPEDTAVYYCNVGGGYWGQGTQVTVSS
modifications: Alexa Fluor 647 by maleimide chemistry on the C-terminal free cysteine
B2: 13F11-13F11 conjugated to Alexa Fluor 647 (VHH, part only; not given: C-terminal cysteine and His tag, not shown: small tags and cut ends)
chain, part: EVQLVESGGRLVQPGDSLRLSCAASGRTFSDNAMGWFRQAPGKERRFVAGISWAGGSTYYSDSVKGRFTISRDNAKNTVYLQMNSLKPEDTAVYYCAAGLRAWVQRMPKDYNYWGQGTQVTVSSGGGGSGGGGSGGGGSEVQLVESGGRLVQPGDSLRLSCAASGRTFSDNAMGWFRQAPGKERRFVAGISWAGGSTYYSDSVKGRFTISRDNAKNTVYLQMNSLKPEDTAVYYCAAGLRAWVQRMPKDYNYWGQGTQVTVSS
modifications: Alexa Fluor 647 by maleimide chemistry on the C-terminal free cysteine
B3: 13C11 (VHH)
VHH: EVQLVESGGGLVQAGGSLRLSCAASGLTFSSYTMAWYRQAPGKEREVVAAISSGDSIYHEGSVQGRFIISRDNAKNTVYLQMNSLKAEDTAVYYCRANGPGTYWGQGTQVTVSS
B4: 13G10 (VHH)
VHH: B3 VHH with G61D
B5: 13E8 (VHH)
VHH: EVQLVESGGGLVQAGGSLRLSCAASRSISPMGWYRQAPGKQRELVAIMPSSGPPIYADSVQGRFTISRDNAKNTVYLQMNSLKPEDTAVYYCNVGGGYWGQGTQVTVSS
B6: 13E8-13F11 conjugated to IRD800CW (VHH, not shown: small tags and cut ends)
chain: EVQLVESGGGLVQAGGSLRLSCAASRSISPMGWYRQAPGKQRELVAIMPSSGPPIYADSVQGRFTISRDNAKNTVYLQMNSLKPEDTAVYYCNVGGGYWGQGTQVTVSSGGGGSGGGGSGGGGSEVQLVESGGRLVQPGDSLRLSCAASGRTFSDNAMGWFRQAPGKERRFVAGISWAGGSTYYSDSVKGRFTISRDNAKNTVYLQMNSLKPEDTAVYYCAAGLRAWVQRMPKDYNYWGQGTQVTVSS
modifications: IRD800CW by maleimide chemistry on the C-terminal free cysteine
B7: 13E8-13F11 conjugated to Alexa Fluor 647 (VHH, not shown: small tags and cut ends)
chain: B6 chain
modifications: Alexa Fluor 647 by maleimide chemistry on the C-terminal free cysteine
B8: 13F11 (VHH)
VHH: EVQLVESGGRLVQPGDSLRLSCAASGRTFSDNAMGWFRQAPGKERRFVAGISWAGGSTYYSDSVKGRFTISRDNAKNTVYLQMNSLKPEDTAVYYCAAGLRAWVQRMPKDYNYWGQGTQVTVSS
B9: 13F11 conjugated to Alexa Fluor 647 (VHH, not shown: small tags and cut ends)
VHH: B8 VHH
modifications: Alexa Fluor 647 by maleimide chemistry on the C-terminal free cysteine

Experiments:
[1] = molecular target: recombinant human extracellular domain of IGF2R (human) (UniProt P11717); experiment: titration ELISA of the Alexa Fluor 647 conjugate on recombinant hIGF2R-ECD, one-site specific binding fit
[2] = molecular target: recombinant human extracellular domain of IGF2R (human) (UniProt P11717); experiment: titration ELISA on recombinant hIGF2R-ECD, direct read-out of the Alexa Fluor 647 conjugate (fluorescence intensity 700 nm), one-site specific binding fit (Examples 4.1, 6.1)
[3] = molecular target: recombinant human extracellular domain of IGF2R (human) (UniProt P11717); experiment: binding assay on plates coated with hIGF2R-ECD, three-fold VHH dilutions, bound VHH detected with anti-VHH antibody (Example 4.1); y axis OD415
[4] = molecular target: recombinant human extracellular domain of IGF2R (human) (UniProt P11717); experiment: competition ELISA on human IGF2R ectodomain: 250 nM unlabelled 13E8 against 10 nM labelled 13F11 (competitor: 13F11-A647)
[5] = molecular target: human IGF2R on cells (human) (UniProt P11717); experiment: cell-based or functional assay
[6] = molecular target: rat IGF2R on cells (rat); experiment: cell-based or functional assay
[7] = molecular target: recombinant human extracellular domain of IGF2R (human) (UniProt P11717); experiment: binding assay on hIGF2R-ECD coated plates, detection with anti-VHH antibody
[8] = molecular target: recombinant human extracellular domain of IGF2R (human) (UniProt P11717); experiment: titration ELISA on hIGF2R-ECD, direct read out at 647 nm, one-site specific binding fit

Binder | Kd [1] [nM] | Bmax [2] | EC50 (read off the curve) [3] [nM] | further results
B1 | 2.5 | 79.2 | – | –
B2 | 3.1 | 63.4 | – | –
B3 | – | – | 3 | –
B4 | – | – | 2 | –
B5 | – | – | – | decrease of the fluorescence intensity of labelled 13F11 [4]: < 5%
B6 | – | – | – | endocytic rate constant, ke [5]: 1.5 min⁻¹; endocytic rate constant, ke [6]: 0.7 min⁻¹
B7 | 2.5 | 94.7 | – | –
B8 | – | – | 0.4 | Kd [7]: 0.23 nM
B9 | – | 20.1 | – | Kd [8]: 1 nM
